Laboratory results: the DeepSol protein solubility set

Assay: soluble on expression in E. coli; label from the status in PepcDB or PDB records

Row | Sequence | soluble on expression in E. coli
1 | MSLTEWLTIFDSERNTLGKKLRDEVHRDGNWHETFHCWFVEKDAEDMFLYFQLRSKNKKEAPLIWDITSAGHIMHDEDVQIGGLREIEEELGLSFQTTDLAYKGIFTIDYEISNLTDREFCHMYFHNVINPLPFAPGEEVDDVMKIHATSFLQLLKREISSFTATSVLSNKSITITFSDIYPYDFAYYEFVVEQGKELLKNNDEGHHHHHH | soluble
2 | MRIGQYQLRNRLIAAPMAGITDRPFRTLCYEMGAGLTVSEMMSSNPQVWESDKSRLRMVHIDEPGIRTVQIAGSDPKEMADAARINVESGAQIIDINMGCPAKKVNRKLAGSALLQYPDVVKSILTEVVNAVDVPVTLKIRTGWAPEHRNCEEIAQLAEDCGIQALTIHGRTRACLFNGEAEYDSIRAVKQKVSIPVIANGDITDPLKARAVLDYTGADALMIGRAAQGRPWIFREIQHYLDTGELLPPLPLAEVKRLLCAHVRELHDFYGPAKGYRIARKHVSWYLQEHAPNDQFRRTFNAIEDASEQLEALEAYFENFA | not soluble
3 | MQTFQADLAIVGAGGAGLRAAIAAAQANPNAKIALISKVYPMRSHTVAAEGGSAAVAQDHDSFEYHFHDTVAGGDWLCEQDVVDYFVHHCPTEMTQLELWGCPWSRRPDGSVNVRRFGGMKIERTWFAADKTGFHMLHTLFQTSLQFPQIQRFDEHFVLDILVDDGHVRGLVAMNMMEGTLVQIRANAVVMATGGAGRVYRYNTNGGIVTGDGMGMALSHGVPLRDMEFVQYHPAGLPGSGILMTEGCRGEGGILVNKNGYRYLQDYGMGPETPLGEPKNKYMELGPRDKVSQAFWHEWRKGNTISTPRGDVVYLDLRHLGEKKLHERLPFICELAKAYVGVDPVKEPIPVRPTAHYTMGGIETDQNCETRIKGLFAVGECSSVGLHGANRLGSNSLAELVVFGRLAGEQATERAATAGNGNEAAIEAQAAGVEQRLKDLVNQDGGENWAKIRDEMGLAMEEGCGIYRTPELMQKTIDKLAELQERFKRVRITDTSSVFNTDLLYTIELGHGLNVAECMAHSAMARKESRGAHQRLDEGCTERDDVNFLKHTLAFRDADGTTRLEYSDVKITTLPPAKRVYGGEADAADKAEAANKKEKANG | soluble
4 | MSDSASNTENSIQIEIFPSRILSPETAQKLLVELSQVDGILRVMIQGNRLPEKVGYGPGTGEKVEHPLRKPIQIGGQVIELRVSVGRIRLEVLNAEVKENVRAVCEKMLPFSFEFREGHFLRRKPTVTDYAKLGPEADPRLLGMVDPKAKINQLVFIEKQEKEDDEDKDELEHHHHHH | soluble
5 | SLVPQGGPVLCRDEMEEWSASEAMLFEEALEKYGKDFNDIRQDFLPWKSLASIVQFYYMWKTTDRYIQQKRLKAAEAEG | soluble
6 | MQNAILLVSCPDRKGLVKEISSFIADNGGNIVSFDQHIDEQTKTFLARVEWSLEDFKIPREKIENEFKKVAQKFSMNFQISFSDYVKKVAIFVSKQEHCFYDLMHRFYSGELKGEVKLVISNHEKARKTAEFFGVPFYHIPKTKENKLEAEKRELELLKEYGVELVVLARYMQILSPKFVKEYENKIINIHHSFLPAFPGAKPYERAFGKGVKIIGATAHYVTEELDEGPIIEQDVVRVSHKDSLEDFIRKGKDIEKVVLARAVKWHLEDKILVYNGKTVVFE | soluble
7 | TPEHRAVAREVAAETFVLLKNENHLLPLEEKGKIALIGPMADARNNMCGMWSMTCTPSRHGTLLEGIRSAVGDKAEILYAKGSNVYYDAEMEKGAVGIRPLERGNDQQLLAEALRTAARADVIVAAVGECAEMSGESPSRTNLEIPDAQQDLLKALVKTGKPVVLLLFTGRPLILNWESEHIPSILNVWFGGSETGDAVADVLFGKAVPCGKLTTTFPRSVGQLPLFYNHLNTGRPDPDNRVFNRYASNYLDESNEPLYPFGYGLSYTDF | not soluble
8 | MIIIGIDEAGRGPVLGPMVVCAFAIEKEREEELKKLGVKDSKELTKNKRAYLKKLLENLGYVEKRILEAEEINQLMNSINLNDIEINAFSKVAKNLIEKLNIRDDEIEIYIDACSTNTKKFEDSFKDKIEDIIKERNLNIKIIAEHKADAKYPVVSAASIIAKAERDEIIDYYKKIYGDIGSGYPSDPKTIKFLEDYFKKHKKLPDIARTHWKTCKRILDKSKQTKLIIE | soluble
